According to patent US20220089770A1 (Chugai, published 2022):

What was measured:
Myc-human MARVELD3 = molecular target: T1, Myc-human MARVELD3 (human, UniProt Q96A59 2-401); experiment: flow cytometry on Expi293 cells transiently expressing Myc-human MARVELD3 isoform2 against cells with empty vector; anti-human IgG Fc Alexa488
T1 construct: also called human MARVELD3 isoform2; MARVELD3 isoform2
T1 sequence: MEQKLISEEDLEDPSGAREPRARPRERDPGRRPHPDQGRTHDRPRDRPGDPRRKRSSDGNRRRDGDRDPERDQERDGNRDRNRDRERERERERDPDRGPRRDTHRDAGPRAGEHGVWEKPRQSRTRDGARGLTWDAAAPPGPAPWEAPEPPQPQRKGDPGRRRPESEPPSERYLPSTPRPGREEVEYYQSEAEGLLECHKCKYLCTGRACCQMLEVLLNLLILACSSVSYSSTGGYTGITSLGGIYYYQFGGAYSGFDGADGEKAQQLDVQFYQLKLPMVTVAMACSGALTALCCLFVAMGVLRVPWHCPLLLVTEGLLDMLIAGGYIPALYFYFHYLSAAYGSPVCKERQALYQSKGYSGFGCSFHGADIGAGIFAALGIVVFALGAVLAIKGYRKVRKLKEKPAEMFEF
Source text: A plasmid vector that expresses, in mammalian cells, a molecule (Myc-human MARVELD3, nucleotide SEQ ID NO: 29, amino acid SEQ ID NO: 30) in which the Myc tag sequence ([…], SEQ ID NO: 25) has been added after the N-terminal methionine of full-length human MARVELD3 isoform2 (amino acid SEQ ID NO: 4), was introduced into Expi293 cells (Thermo Fisher Scientific), and the protein was transiently expressed in the Expi293 cells. At the same time, Expi293 cells transfected with an empty plasmid vector were also prepared as a control. The Expi293 cells transfected with an empty plasmid vector were stained with CellTrace FarRed (Thermo Fisher Scientific) and then mixed with the Expi293 cells made to express human MARVELD3 isoform2, and subsequently reacted with an anti-human MARVELD3 isoform2 antibody prepared in Example 9. […] The cells reacted with the antibody were measured by FACS Aria III (Becton, Dickinson and Company). The obtained data were analyzed by FlowJo ver.10. The live cell fraction, which was not stained with DAPI fluorescence, was separated into a fraction that was stained with CellTrace FarRed (cells transfected with the empty plasmid vector) and a fraction that was not stained with CellTrace FarRed (cells transfected with the human XPR1-Myc expression plasmid vector), and Alexa488 staining for each fraction was examined.

human NOX1-Strep = human NOX1-Strep (human, UniProt Q9Y5S8 1-564); experiment: flow cytometry on fixed, digitonin-treated Expi293 cells expressing human NOX1-Strep against cells with empty vector; anti-human IgG Fc Alexa488
Chain of human NOX1-Strep (Q9Y5S8 other isoform, or with tags, fused parts or gaps): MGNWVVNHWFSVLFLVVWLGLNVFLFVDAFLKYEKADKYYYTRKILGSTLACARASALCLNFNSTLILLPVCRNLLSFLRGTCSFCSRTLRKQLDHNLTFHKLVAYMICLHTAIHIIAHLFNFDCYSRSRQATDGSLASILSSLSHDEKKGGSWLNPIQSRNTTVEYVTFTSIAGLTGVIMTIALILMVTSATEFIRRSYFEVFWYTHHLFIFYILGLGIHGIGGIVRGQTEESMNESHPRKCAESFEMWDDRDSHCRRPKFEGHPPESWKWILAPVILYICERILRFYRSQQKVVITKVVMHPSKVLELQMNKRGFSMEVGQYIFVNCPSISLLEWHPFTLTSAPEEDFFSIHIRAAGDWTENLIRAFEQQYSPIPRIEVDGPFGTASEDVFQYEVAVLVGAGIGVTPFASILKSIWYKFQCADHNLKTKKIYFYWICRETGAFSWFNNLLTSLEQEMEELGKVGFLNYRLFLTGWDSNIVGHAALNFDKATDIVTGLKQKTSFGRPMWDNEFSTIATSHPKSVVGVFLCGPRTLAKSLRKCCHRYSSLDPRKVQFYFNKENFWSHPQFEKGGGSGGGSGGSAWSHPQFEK
Experimental: (§1) A plasmid vector expressing human NOX1-Strep (amino acid SEQ ID NO: 34) or a plasmid vector expressing NOX1_Nx1B_564-myc (amino acid SEQ ID NO: 33) was introduced into Expi293 cells (Thermo Fisher Scientific) to express the protein transiently. At the same time, Expi293 cells transfected with an empty plasmid vector were also prepared as a control. These cells were treated with 4% paraformaldehyde and 1% digitonin. The Expi293 cells transfected with an empty plasmid vector were stained with CellTrace FarRed (Thermo Fisher Scientific), the Expi293 cells transfected with the plasmid vector expressing human NOX1-Strep were stained with CellTrace FarRed and CellTrace Violet (Thermo Fisher Scientific), and then mixed with the Expi293 cells made to express NOX1_Nx1B_564-myc. Subsequently, the cells were reacted with an anti-human NOX1 antibody prepared in Example 13.
(§2) Then, anti-human IgG Fc cross-adsorbed Alexa488 (Invitrogen) was reacted to stain the anti-human NOX1 antibody. The cells reacted with the antibody were measured by FACS Aria III (Becton, Dickinson and Company). The obtained data were analyzed by FlowJo ver.10.

NOX1_Nx1B_564-myc = molecular target: T2, NOX1_Nx1B_564-myc (human); experiment: flow cytometry on fixed, digitonin-treated Expi293 cells expressing NOX1_Nx1B_564-myc against cells with empty vector; anti-human IgG Fc Alexa488
T2 construct: Expressed in Expi293 cells treated with 4% paraformaldehyde and 1% digitonin before staining; also called human NOX1
T2 sequence (chain, as listed by the source limits assumed): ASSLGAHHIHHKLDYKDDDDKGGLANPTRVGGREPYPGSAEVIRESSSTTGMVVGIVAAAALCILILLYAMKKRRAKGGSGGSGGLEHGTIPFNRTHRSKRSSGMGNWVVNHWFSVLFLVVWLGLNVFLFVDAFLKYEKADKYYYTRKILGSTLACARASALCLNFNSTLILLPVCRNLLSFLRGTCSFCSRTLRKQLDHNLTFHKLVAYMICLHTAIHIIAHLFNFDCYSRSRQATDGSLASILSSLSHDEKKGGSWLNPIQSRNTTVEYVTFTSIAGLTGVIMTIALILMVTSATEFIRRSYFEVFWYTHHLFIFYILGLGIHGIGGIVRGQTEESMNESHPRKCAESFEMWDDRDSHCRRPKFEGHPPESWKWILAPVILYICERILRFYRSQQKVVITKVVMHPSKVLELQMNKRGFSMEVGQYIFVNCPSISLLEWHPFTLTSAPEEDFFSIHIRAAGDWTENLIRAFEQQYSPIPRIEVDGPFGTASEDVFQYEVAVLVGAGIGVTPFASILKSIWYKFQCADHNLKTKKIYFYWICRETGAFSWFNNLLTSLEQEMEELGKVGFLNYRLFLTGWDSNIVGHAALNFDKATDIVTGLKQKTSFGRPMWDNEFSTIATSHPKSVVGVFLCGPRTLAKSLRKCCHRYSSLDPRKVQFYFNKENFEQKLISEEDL
Experimental: as §1, §2

human XPR1-Myc = molecular target: T3, human XPR1-Myc (human, UniProt Q9UBH6 1-696); experiment: flow cytometry on Expi293 cells transiently expressing human XPR1-Myc against cells with empty vector; anti-human IgG Fc Alexa488
T3 sequence: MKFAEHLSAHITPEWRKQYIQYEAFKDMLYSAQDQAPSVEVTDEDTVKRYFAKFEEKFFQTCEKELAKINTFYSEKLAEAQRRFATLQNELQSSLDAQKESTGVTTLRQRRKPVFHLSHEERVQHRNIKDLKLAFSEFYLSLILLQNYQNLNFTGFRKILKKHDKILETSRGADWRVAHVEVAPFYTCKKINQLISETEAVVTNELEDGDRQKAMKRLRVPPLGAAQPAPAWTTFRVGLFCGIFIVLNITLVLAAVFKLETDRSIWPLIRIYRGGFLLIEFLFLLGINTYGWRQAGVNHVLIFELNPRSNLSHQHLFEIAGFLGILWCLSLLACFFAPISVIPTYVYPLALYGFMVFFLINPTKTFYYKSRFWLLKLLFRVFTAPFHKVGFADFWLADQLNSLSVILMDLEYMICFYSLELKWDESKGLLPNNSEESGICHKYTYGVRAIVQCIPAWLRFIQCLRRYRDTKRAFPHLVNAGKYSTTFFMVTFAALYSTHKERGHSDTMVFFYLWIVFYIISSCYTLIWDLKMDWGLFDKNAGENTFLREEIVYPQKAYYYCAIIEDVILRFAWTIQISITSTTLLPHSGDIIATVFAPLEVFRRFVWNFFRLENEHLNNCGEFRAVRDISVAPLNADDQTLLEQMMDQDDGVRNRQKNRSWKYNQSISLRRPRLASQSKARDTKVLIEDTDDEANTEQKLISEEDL
Experimental: A plasmid vector expressing in mammalian cells full-length human XPR1 (amino acid SEQ ID NO: 1) with a Myc tag sequence ([…], SEQ ID NO: 25) added to the C-terminus (human XPR1-Myc, nucleotide SEQ ID NO: 26, amino acid SEQ ID NO: 27) was constructed. The protein was transiently expressed in Expi293 cells (Thermo Fisher Scientific) by introducing the constructed plasmid vector into Expi293 cells. At the same time, Expi293 cells transfected with an empty plasmid vector were also prepared as a control. The Expi293 cells transfected with an empty plasmid vector were stained with CellTrace FarRed (Thermo Fisher Scientific) and then mixed with the Expi293 cells made to express human XPR1-Myc, and subsequently reacted with the anti-human XPR1 antibody prepared in Example 6. […] The cells reacted with the antibody were measured by FACS Aria III (Becton, Dickinson and Company). The obtained data were analyzed by FlowJo ver.10. The live cell fraction, which was not stained with DAPI fluorescence, was separated into a fraction that was stained with CellTrace FarRed (cells transfected with the empty plasmid vector) and a fraction that was not stained with CellTrace FarRed (cells transfected with the human XPR1-Myc expression plasmid vector), and Alexa488 staining for each fraction was examined.

B1: MDA0314 (antibody, V domains shown)
VH: QSLEESGGRLVTPGTPLTLTCTASGFSLSYYFMTWVRQAPGKGLEYIGIIRVDGSGYYATWAKGRFTISRTSTTVELKITSPTTEDTATYFCARVGDWAFNIWGPGTLVTVSS
VL: IKMTQTPASVSTAVGGTVSINCQASEDIESYLAWFQQKPGQRPKLLIYRASTLASGVSSRFKGSGSGTEFTLTISGVECADAATYYCQQGHTINNIDNVFGGGTEVVVK
notes: Rabbit variable regions inserted into an expression vector containing the IgG constant regions; detected with anti-human IgG Fc; also called anti-human MARVELD3 isoform2 antibody
B1: binds (Myc-human MARVELD3).

B2: NXA0125 (antibody, V domains shown)
VH: QEQLEESGGDLVKPGASLTLTCTASGFSFNSNYFMCWVRQAPGKGLEWIACIYTGSSGGTYYATWAKGRFTISKTSSTTVTLQMTSLTAADTATYFCAGDTMTIPFNLWGPGTLVTVSS
VL: QVLTQTASPVSAPVGGTVTINCQASQSVYNNNNLHWFQQKPGQRPKLLIYFASTLASGVSSRFKGSGSGTQFTLTISGVQCDDAATYYCQGEFSCSSADCNAFGGGTEVVVK
notes: Rabbit variable regions inserted into an expression vector containing IgG constant regions; detected with anti-human IgG Fc; also called anti-human NOX1 antibody
B2: binds (human NOX1-Strep); binds (NOX1_Nx1B_564-myc).

B3: XPB0062 (antibody, V domains shown)
VH: QSLEESGGDLVKPGASLTLTCTASGFSFSSSYWICWVRQAPGKGLEWIACINAGNSGSTYYASWAKGRFTISKTSSTTVTLQMTSLTAADTATYFCARGSYSYGYVGYVYTTSTRLDLWGQGTLVTVSS
VL: DVVMTQTPASVSEPVGGTVTIKCQASQNIGSDLAWYQQKPGQPPKLLIYRASTLASGVSSRFKGSGSGTQFTLTISDLECADAATYYCQCTYYGSIYVPNAFGGGTEVVVK
notes: Rabbit variable regions inserted into an expression vector containing the IgG constant regions (recombinant antibody); detected with anti-human IgG Fc; also called anti-human XPR1 antibody
B3: binds (human XPR1-Myc).

B4: NXA0164 (antibody, V domains shown)
VH: QSVEESGGRLVTPGTPLTLTCTVSGFSLSNYAMSWVRQAPGKGLEWIGIISSSGSTYYASWAKGRFTISKTSTTVDLKITSPTTEDTATYFCARDLDASTGTDIWGPGTLVTVSS
VL: AVLTQTPSPVSAAVGGTVTINCQASQSVYSNNYLSWFQQKPGQPPKLLIYKASTLASGVPSRFKGSGSGTQFTLTISDVQCDDAATYYCAGDYKSSSDIRAFGGGTEVVVK
notes: as for B2
B4: binds (human NOX1-Strep); binds (NOX1_Nx1B_564-myc).

B5: MDA0279 (antibody, V domains shown)
VH: QSLEESGGDLVKPGGTLTLTCTASGFSFSDWYWVGWVRQAPGKGLEWIGCIVTGNGHTYYASWAKGRFTISKTSSTTVTLQLNSLTAADTATYFCARGVGASRYALWGPGTLVTVSS
VL: IVMTQTPSSKSVPVGDTVTINCQASESVASNWLSWYQQKPGQPPKLLIYFASTLASGVPSRFKGSGSGTQFTLTISDVVCDDAATYYCAGYKSDTTDGTAFGGGTEVVVK
notes: as for B1
B5: binds (Myc-human MARVELD3).
